Consider one protein from publication doi:10.1101/2024.08.25.607996 (bioRxiv, 2024).

This data set deals with the molecule itself. In words: cryo-EM structure.

B1: feline APN ectodomain without the Fc fusion (dimer) (domain or fragment)
chain: DQSKPWNVYRLPKTLIPDSYNVTLRPYLTPNNKGLYVFTGTNIVRFTCKESTNIVIIHSKRLNYTSHQGHMVALSGVGGFHPQPVIVRTELVELTEYLVVHLQEPLVAGRQYEMNSEFQGELADDLAGFYRSEYMENGVKKVLATTHMQATEARKSFPCFDEPAMKATFNITIIHPNNLVALSNMLPRGPSVPFGEDPTWKVTEFETTPIMSTYLLAYIVSEFSYVETRAPSGVLIRIWARPSAINQGHGDYALKVTGPILDFFSQHYDTPYPLNKSDQIALPDFNAGAMENWGLVTYRESALLYDRQSSSSGNQERVVTVIAHELAHQWFGNLVTLEWWNDLWLNEGFASYVEYLGADFAEPTWNLKDLMVLNDVYRVMAVDALASSHPLSTPASEINTPAQISEVFDSISYSKGASVLRMLSNFLTEDLFKMGIASYLHTYKYGNTIYLNLWEHLQQVVDKQPTIKLPDTVSAIMDRWILQMGFPVITVDTQTGTISQQHFLLDPQSVVTRPSQFNYLWIVPISSVRSGSPQAHYWLPGVEKAQNDLFKTTANDWVLLNLNVTGYYLVNYDNENWKKIQTQLQTDLSVIPVINRAQVIHDAFNLASAQKVPVTLALNNTLFLIQETEYMPWQAALSSLSYFKLMFDRSEVYGPMKRYLKKQVTPLFNHFERVTKNWTDHPQTLMDQYSEINAVSTACSYGVPECEKLAATLFAQWKKNPQNNPIHPNLRSTVYCNAIAQGGEEEWNFVWEQFLKAELVNEADKLRGALACSNQVWILNRFLSYTLDPNLIRKQDVTSTLSSISSNVVGQTLVWDFVQSNWKKLFQDYGTGSFSFSNLIQAVTRRFSTEFELQQLEQFKKNNMDTGFGSATRALEQALEKTKANLKWVKENKDVVLRWFTENS
For orientation: stoichiometry N means the number of molecules, sites or subunits per partner or assembly. As to B1, the “stoichiometry N” value was 2.
